Source: patent US20240408220A1, “PEPTIDE DENDRONS AND METHODS OF USE THEREOF” (ASTRAZENECA AB, priority 2021, published 2024)
Where no end group is shown, it is not given here. [ ]: non-standard residue; d: D form. Cit = NC(=O)NCCC[C@H](N)C(=O)O

How the values were obtained:
[1] = Anionic stability assay (dextran sulfate dissociation of NPs); type: physicochemical
Procedure: Dextran sulfate (DS) solutions were prepared in 20 mM HEPES and added to NP solutions (prepared as in Example 4) so the final DS concentration was between […] and DNA concentration was 10 μg/mL. After a 15-minute decomplexation period, 15 μl of each formulation was added to a 2% E-gel with ethidium bromide and run for 10 minutes. pDNA release was calculated using ImageJ (NIH, Bethesda, Maryland) and the results shown in FIG. 2A where the percent of intact nanoparticles Is plotted as a function of DS concentration.

Cathepsin-B = Cathepsin-B (Homo sapiens, UniProt P07858); experiment: Enzymatic DNA release from NPs by cathepsin-B; type: biochemical; conditions: relative to non-modified PD3 and all PD2 formulations
Procedure: NPs prepared as in Example 4 but in 8 mM L-Cysteine HCl buffer pH 6 at a final DNA concentration of 0.1 μg/μl. Cathepsin-B stock solution (60 units/mL) was subsequently added. Cat-B NP solutions were incubated at 37° C. for up to 4 hours. Aliquots were removed at the appropriate time points and analysed via agarose gel electrophoresis to visualize released DNA. DNA dilutions were prepared at different concentrations as a control and likewise added to the same agarose gel for subsequent quantification using bio-rad intensity software analysis and the results shown in FIG. 2B.

Substance	dextran sulphate concentration above which DNA was readily released [1]	DNA release in response to cathepsin-B activity (Cathepsin-B)
({LEU}{ARG}8{LYS}{LEU}{ARG}4{LYS}{LEU}{ARG})2{LYS}{GLY}{VAL}{CIT}{GLY}{GLY}{SER}{CYS} (chain 1 LRKLRKLRKGV[Cit]GGSC-NH2; chain 2 LRKLRKLR; chain 3 LRKLR; also: branched dendron: side chains of K3, K6, K9 (chain 1) and K3, K6 (chain 2) amide-linked to other sequences, chain 2 C-terminus linked to another sequence) [PD1, comparison peptide dendron without modified lysines]	exceeding 50 μg/mL	
({LYS(M)}{LEU}{ARG})8({LYS}{LYS(M)}{LEU}{ARG})4({LYS}{LYS(M)}{LEU}{ARG})2{LYS}{GLY}{VAL}{CIT}{GLY}{GLY}{SER}{CYS} (chain 1 K(2‑morpholinoacetyl)LRKK(2‑morpholinoacetyl)LRKK(2‑morpholinoacetyl)LRKGV[Cit]GGSC-NH2; chain 2 K(2‑morpholinoacetyl)LRKK(2‑morpholinoacetyl)LRKK(2‑morpholinoacetyl)LR; chain 3 K(2‑morpholinoacetyl)LRKK(2‑morpholinoacetyl)LR; also: branched dendron: side chains of K4, K8, K12 (chain 1) and K4, K8 (chain 2) amide-linked to other sequences) [PD3(M)]		readily released DNA in response to cathepsin-B activity
